{"source": "paper PMC12172977", "target": "CCHFV nucleocapsid protein (N protein) (Crimean-Congo hemorrhagic fever virus (strain 10200?)) (UniProt P89522)", "sequence (P89522 whole entry)": "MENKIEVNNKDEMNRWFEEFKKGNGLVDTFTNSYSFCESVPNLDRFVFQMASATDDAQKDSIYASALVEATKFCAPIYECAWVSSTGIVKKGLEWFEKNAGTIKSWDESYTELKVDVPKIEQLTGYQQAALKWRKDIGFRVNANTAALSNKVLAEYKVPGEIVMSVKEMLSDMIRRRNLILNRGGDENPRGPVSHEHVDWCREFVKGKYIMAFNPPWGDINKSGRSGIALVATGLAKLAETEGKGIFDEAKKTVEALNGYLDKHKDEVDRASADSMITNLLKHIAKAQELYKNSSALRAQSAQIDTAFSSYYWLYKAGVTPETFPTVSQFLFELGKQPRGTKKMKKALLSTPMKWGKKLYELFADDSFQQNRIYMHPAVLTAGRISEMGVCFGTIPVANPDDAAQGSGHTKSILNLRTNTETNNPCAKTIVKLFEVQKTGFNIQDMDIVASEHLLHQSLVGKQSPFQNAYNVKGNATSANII", "assay": "filter binding"}
{"substance": "Luc mRNA-1 (WT S-segment 5' UTR + luciferase ORF + truncated S 3' UTR)", "values": [{"measurement": "Kd", "value": 42, "unit": "nM"}]}
